Source: patent US20250115677A1, “Anti-CEA Antibody Drug Conjugates and Methods of Use” (BeiGene Switzerland GmbH, priority 2022, published 2025)

Experiments:
[1] = biological target: T1, human CEA on cells (MKN45, LOVO, NCI-H2122, LS174T, CT26/CEA) (human, UniProt P06731 35-685); test: cell-based or functional assay
T1 sequence: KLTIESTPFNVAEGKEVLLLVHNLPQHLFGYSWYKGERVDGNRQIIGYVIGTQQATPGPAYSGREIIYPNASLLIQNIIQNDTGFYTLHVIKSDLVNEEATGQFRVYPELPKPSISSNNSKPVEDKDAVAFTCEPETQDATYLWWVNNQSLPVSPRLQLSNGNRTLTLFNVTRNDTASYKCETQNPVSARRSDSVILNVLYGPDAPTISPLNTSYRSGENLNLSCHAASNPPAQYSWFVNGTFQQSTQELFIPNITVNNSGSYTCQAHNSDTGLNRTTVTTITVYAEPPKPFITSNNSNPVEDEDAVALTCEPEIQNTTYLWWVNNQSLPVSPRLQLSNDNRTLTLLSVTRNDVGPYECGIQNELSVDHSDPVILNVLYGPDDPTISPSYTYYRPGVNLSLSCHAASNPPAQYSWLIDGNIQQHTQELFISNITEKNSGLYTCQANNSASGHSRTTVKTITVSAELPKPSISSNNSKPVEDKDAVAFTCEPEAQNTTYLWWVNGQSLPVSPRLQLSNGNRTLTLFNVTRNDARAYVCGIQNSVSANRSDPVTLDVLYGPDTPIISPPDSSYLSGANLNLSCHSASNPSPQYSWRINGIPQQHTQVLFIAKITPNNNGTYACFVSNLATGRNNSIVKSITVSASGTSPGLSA

[2] = biological target: T2, chimeric construct (CHIM) (human); test: SPR; binding to CHIM
T2 construct: CEACAM6 AA 1-273 joined to the membrane-peripheral region containing domain B3 of CEA (AA 596-687), C-terminal 6xHis; also called chimeric CEA
T2 chain: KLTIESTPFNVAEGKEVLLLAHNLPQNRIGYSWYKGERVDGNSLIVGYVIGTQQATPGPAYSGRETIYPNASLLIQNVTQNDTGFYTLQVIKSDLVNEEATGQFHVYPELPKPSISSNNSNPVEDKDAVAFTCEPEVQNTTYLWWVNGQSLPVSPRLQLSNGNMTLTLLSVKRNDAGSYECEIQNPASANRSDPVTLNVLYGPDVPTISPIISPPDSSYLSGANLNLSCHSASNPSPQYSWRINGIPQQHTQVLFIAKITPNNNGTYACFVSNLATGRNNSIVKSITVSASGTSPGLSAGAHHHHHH

[3] = biological target: T1, human CEA on cells (MKN45, LOVO, …); test: flow cytometry on MKN45 cells
[4] = biological target: T3, recombinant soluble human CEA (extracellular domain, AA 1-687 of huCEA, C-terminal 6xHis) (human, UniProt P06731 35-687); test: SPR; kinetics on huCEA, IgG format
T3 construct: also called sCEA; soluble CEA
T3 sequence: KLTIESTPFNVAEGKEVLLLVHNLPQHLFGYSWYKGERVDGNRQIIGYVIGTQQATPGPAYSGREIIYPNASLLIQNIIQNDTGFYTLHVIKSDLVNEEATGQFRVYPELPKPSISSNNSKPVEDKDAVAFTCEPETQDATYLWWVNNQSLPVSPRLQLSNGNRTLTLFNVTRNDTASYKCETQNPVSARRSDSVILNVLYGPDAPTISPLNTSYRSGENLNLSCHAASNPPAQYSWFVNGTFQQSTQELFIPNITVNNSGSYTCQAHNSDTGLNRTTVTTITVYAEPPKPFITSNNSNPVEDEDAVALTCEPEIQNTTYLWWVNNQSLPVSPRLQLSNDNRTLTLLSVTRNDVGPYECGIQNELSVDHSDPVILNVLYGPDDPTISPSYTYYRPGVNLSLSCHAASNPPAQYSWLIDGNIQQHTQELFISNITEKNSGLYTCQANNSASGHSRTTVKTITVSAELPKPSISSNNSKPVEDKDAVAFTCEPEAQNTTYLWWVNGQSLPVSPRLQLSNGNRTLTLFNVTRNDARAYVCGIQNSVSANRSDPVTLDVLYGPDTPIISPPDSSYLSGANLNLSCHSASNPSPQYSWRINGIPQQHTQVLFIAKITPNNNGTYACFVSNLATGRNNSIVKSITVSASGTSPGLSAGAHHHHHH

[5] = biological target: T1, human CEA on cells (MKN45, LOVO, …); test: flow cytometry on MKN45 cells, Alexa Fluor 647 anti-human IgG Fc
Procedure: For flow cytometry, CEA-expressing MKN45 cells (10^5 cells/well) were incubated with various concentrations of purified affinity-matured antibodies, followed by binding with Alexa Fluor-647-labeled anti-hu IgG Fc antibody (Cat. No. 409320, BioLegend, USA). Cell fluorescence was quantified using a flow cytometer (Guava easyCyte™ 8HT, Merck-Millipore, USA).

[6] = biological target: T4, CEA (Homo sapiens, UniProt P06731); test: SPR affinity measurement of BGA6710 variants; type: binding; conditions: BGA6710 variants in IgG format
T4 construct: 6xHis (C)
T4 sequence (P06731 with tags, fused parts or gaps limits assumed): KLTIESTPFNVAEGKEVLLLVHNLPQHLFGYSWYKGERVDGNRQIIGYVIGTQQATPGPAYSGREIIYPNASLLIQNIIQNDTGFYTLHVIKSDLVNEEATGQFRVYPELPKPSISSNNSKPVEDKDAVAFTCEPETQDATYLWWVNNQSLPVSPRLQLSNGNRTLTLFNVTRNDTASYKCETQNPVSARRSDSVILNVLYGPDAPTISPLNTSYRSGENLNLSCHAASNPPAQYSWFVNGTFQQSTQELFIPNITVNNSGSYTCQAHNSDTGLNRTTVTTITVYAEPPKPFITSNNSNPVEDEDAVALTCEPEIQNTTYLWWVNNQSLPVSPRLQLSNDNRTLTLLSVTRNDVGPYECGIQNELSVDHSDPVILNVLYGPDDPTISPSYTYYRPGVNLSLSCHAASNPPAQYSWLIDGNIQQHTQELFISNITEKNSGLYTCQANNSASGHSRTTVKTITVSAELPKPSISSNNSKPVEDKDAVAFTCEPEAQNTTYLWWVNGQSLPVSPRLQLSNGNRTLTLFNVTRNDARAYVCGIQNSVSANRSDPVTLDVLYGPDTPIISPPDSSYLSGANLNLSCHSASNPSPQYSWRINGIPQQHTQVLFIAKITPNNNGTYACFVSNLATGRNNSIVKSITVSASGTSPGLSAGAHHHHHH
Text: To further improve the biochemical/biophysical properties, optimization of BGA6710 was made by introducing substitutions in CDR and framework regions (Table 13). The large, hydrophobic residues were chosen and changed to polar residues, except for K13 and Q53, which are selected based on observed differences among human VH germlines. The considerations include amino acid compositions, heat stability (Tm), surface hydrophobicity and isoelectronic points (pIs) while maintaining functional activities. The variants were expressed in Fab format by cloning into the vector pCANTAB-5E as described in Example 6. The Fab-containing supernatants were then screened by ELISA and SPR analysis for CEA binding.
Thus, the BGA6710 variants in IgG format with single identified mutation or combinations were expressed and purified as described in Example 8.

[7] = biological target: T5, CHIM (Homo sapiens, UniProt P06731, A174T/A211G/A239V/A261S/A267P/C12H/D173N/E253A/E283V/F203L/F272R/F277P/F63I/H123Q/H61N/H9C/I100T/I112V/I113T/I13V/I230T/I80V/INS244IISP/K155N/K214E/L18V/L245P/L62R/N182G/N204S/N246D/N288K/P266S/P287A/Q16K/Q78L/R139H/R17E/R198M/R224N/R250L/R77S/S228P/S280H/T171V/T206K/T210A/T217I/T247S/T276I/V221A/V273I/V291P/V55A/W11L); test: SPR affinity comparison of affinity matured humanized BGA7592 variants on CHIM; type: binding; conditions: Table 9, SPR on CHIM
T5 construct: CEACAM6 N-terminal part (fusion partner); 6xHis (C); made in house; host or cells: HEK293-based mammalian cell expression system
T5 sequence (P06731 with tags, fused parts or gaps H9C/W11L/C12H/I13V/Q16K/R17E/L18V/V55A/H61N/L62R/F63I/R77S/Q78L/I80V/I100T/I112V/I113T/H123Q/R139H/K155N/T171V/D173N/A174T/N182G/R198M/F203L/N204S/T206K/T210A/A211G/K214E/T217I/V221A/R224N/S228P/I230T/A239V/INS244IISP/L245P/N246D/T247S/R250L/E253A/A261S/P266S/A267P/F272R/V273I/T276I/F277P/S280H/E283V/P287A/N288K/V291P): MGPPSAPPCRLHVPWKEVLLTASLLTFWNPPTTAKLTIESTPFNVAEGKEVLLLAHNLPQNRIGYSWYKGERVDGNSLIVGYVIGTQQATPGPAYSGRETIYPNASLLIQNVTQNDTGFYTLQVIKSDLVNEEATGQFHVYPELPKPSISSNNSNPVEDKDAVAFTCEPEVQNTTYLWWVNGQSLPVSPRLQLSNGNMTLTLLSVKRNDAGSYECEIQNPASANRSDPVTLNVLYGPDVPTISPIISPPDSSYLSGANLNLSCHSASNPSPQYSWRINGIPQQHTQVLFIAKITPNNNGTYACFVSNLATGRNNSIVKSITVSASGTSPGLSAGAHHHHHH
Procedure: (§1) Affinity comparison of BGA7592-1F (BGA5366) and other affinity matured clones was made by SPR assay (Table 9) using BIAcore™ T-200 (GE Life Sciences) and flow cytometry (FIG. 7). For this experiment, anti-human IgG (Fc) antibody was immobilized on an activated CM5 biosensor chip (Cat. No. BR100839, GE Life Sciences). Anti-CEA antibodies were flowed over the chip surface and captured by anti-human Fab antibody. Then a serial dilution (1.37 nM to 333 nM) of CHIM was flowed over the chip surface and changes in surface plasmon resonance signals were analyzed to calculate the association rates (kon) and dissociation rates (koff) by using the one-to-one Langmuir binding model (BIA Evaluation Software, GE Life Sciences). For flow cytometry, CEA-expressing cells (10′ cells/well) were incubated with various concentrations of purified affinity-matured antibodies, followed by binding with Alexa Fluro-647-labeled anti-hu IgG Fc antibody (Cat. No. 409320, BioLegend, USA). Cell fluorescence was quantified using a flow cytometer (Guava easyCyte™ 8HT, Merck-Millipore, USA). The equilibrium dissociation constant (KD) was calculated as the ratio koff/kon.

[8] = biological target: T6, huCEA surface protein (LOVO cells) (Homo sapiens, UniProt P06731); test: Flow cytometry binding of affinity matured humanized BGA7592 variants to LOVO cells
T6 construct: host or cells: LOVO
T6 sequence (P06731 35-676): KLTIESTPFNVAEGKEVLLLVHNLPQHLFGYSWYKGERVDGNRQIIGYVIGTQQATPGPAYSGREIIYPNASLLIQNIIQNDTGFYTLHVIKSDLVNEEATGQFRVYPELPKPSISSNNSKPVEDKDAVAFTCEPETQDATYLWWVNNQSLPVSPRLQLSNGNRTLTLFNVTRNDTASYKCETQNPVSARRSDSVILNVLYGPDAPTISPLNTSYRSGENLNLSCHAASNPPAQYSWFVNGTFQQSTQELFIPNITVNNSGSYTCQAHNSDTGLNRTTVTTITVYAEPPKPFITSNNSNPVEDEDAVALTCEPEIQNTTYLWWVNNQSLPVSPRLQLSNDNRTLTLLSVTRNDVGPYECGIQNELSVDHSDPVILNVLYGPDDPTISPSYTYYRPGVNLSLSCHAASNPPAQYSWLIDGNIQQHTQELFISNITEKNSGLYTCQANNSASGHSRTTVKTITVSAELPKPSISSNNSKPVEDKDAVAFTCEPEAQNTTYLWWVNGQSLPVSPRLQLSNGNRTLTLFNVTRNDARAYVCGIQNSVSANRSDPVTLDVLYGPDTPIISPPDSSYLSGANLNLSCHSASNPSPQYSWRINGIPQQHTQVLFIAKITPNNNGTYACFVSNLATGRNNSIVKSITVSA
Procedure: as §1

[9] = biological target: T5, CHIM; test: SPR affinity comparison of affinity matured humanized BGA7592 variants on CHIM; type: binding; conditions: Table 11, SPR to CHIM

B1: BGA6710 (antibody, human IgG1, V domains shown)
VH: QVQLVQSGAEVKKPGASVKVSCKASGYIFTSYYLHWVRQAPGQGLEWIGYINPQTGYTSYAQKFQGRVTMTRDTSTSTVYMELSSLRSEDTAVYYCAREYGNYNYPLDYWGQGTLVTVSS
VL: DIQMTQSPSSLSASVGDRVTITCRASENQYGYLAWYQQKPGKVPKLLIYNYKNLVEGVPSRFSGSGSGTDFTLTISSLQPEDVATYYCQHHLGTPYTFGQGTKVEIK
notes: BGA2433 with W33Y (VH) and T51Y (VL); wild-type human IgG1 format
- ADCC (LDH release), NK92MI/CD16V effector cells with CT26 cells expressing CEA, EC50 [1]: ~0.0067 µg/mL
- Kd [2]: 15.1 nM
- koff [2]: 0.000475 s⁻¹
- kon [2]: 31500 M⁻¹ s⁻¹
- EC50 [3]: 0.49 µg/mL
- Top [3]: 919
- Kd [4]: 1.49 nM
- koff [4]: 0.000169 s⁻¹
- kon [4]: 113000 M⁻¹ s⁻¹
- EC50 (read off the curve) [5]: ~0.5 µg/mL

B2: L92E: BGA6710 variant in IgG format, L92E in the light chain, "slightly reduces the binding affinity to CEA" (antibody, V domains shown)
VH: QVQLVQSGAEVKKPGASVKVSCKASGYIFTSYYLHWVRQAPGQGLEWIGYINPQTGYTSYAQKFQGRVTMTRDTSTSTVYMELSSLRSEDTAVYYCAREYGNYNYPLDYWGQGTLVTVSS
VL: DIQMTQSPSSLSASVGDRVTITCRASENQYGYLAWYQQKPGKVPKLLIYNYKNLVEGVPSRFSGSGSGTDFTLTISSLQPEDVATYYCQHHEGTPYTFGQGTKVEIK
- Kinetics (huCEA) ka [6]: 41700 M⁻¹ s⁻¹
- Kinetics (huCEA) kd [6]: 0.000188 s⁻¹

B3: BGA7592-1F-ph-M (BGA2433): affinity matured clone of BGA7592-1F, "(SEQ ID NO:96)", "improved affinities to huCEA surface protein"; template for further engineering (protein)
chain: DIQMTQSPSSLSASVGDRVTITCRASENQYGYLAWYQQKPGKVPKLLIYNTKNLVEGVPSRFSGSGSGTDFTLTISSLQPEDVATYYCQHHLGTPYTFGQGTKVEIK
modifications: Synthetic: BGA7592-1F-ph-M VL
notes: template for further engineering
- Ka [7]: 2500 M⁻¹ s⁻¹
- Rmax [7]: 224 RU
- affinities to huCEA surface protein [8]: improved affinities
- Ka [9]: 19700 M⁻¹ s⁻¹
- Rmax [9]: 97.2 RU
